Results reported in PMC9468151, “Identification of a binding site on soluble RANKL that can be targeted to inhibit soluble RANK-RANKL interactions and treat osteoporosis” (Nature Communications, 2022).
“And” between values parts separate entries of the source, which are not always exact repeats. Equal entries are not always repeated.

B1: E270A: single-point mutated rat sRANKL (protein)
chain: KPEAQPFAHLTINAADIPSGSHKVSLSSWYHDRGWAKISNMTLSNGKLRVNQDGFYYLYANICFRHHETSGSVPADYLQLMVYVVKTSIKIPSSHNLMKGGSTKNWSGNSAFHFYSINVGGFFKLRAGEEISVQVSNPSLLDPDQDATYFGAFKVQDID
modifications: left off: His6, N-terminal, cleaved | SUMO, N-terminal, cleaved
notes: single-point mutated rat sRANKL
B2: D301A: single-point mutated rat sRANKL (protein)
chain: KPEAQPFAHLTINAADIPSGSHKVSLSSWYHDRGWAKISNMTLSNGKLRVNQDGFYYLYANICFRHHETSGSVPADYLQLMVYVVKTSIKIPSSHNLMKGGSTKNWSGNSEFHFYSINVGGFFKLRAGEEISVQVSNPSLLAPDQDATYFGAFKVQDID
modifications: left off: His6, N-terminal, cleaved | SUMO, N-terminal, cleaved
notes: as for B1
B3: K182A: single-point mutated rat sRANKL (protein)
chain: KPEAQPFAHLTINAADIPSGSHAVSLSSWYHDRGWAKISNMTLSNGKLRVNQDGFYYLYANICFRHHETSGSVPADYLQLMVYVVKTSIKIPSSHNLMKGGSTKNWSGNSEFHFYSINVGGFFKLRAGEEISVQVSNPSLLDPDQDATYFGAFKVQDID
modifications: left off: His6, N-terminal, cleaved | SUMO, N-terminal, cleaved
notes: as for B1
B4: D303A: single-point mutated rat sRANKL (protein)
chain: KPEAQPFAHLTINAADIPSGSHKVSLSSWYHDRGWAKISNMTLSNGKLRVNQDGFYYLYANICFRHHETSGSVPADYLQLMVYVVKTSIKIPSSHNLMKGGSTKNWSGNSEFHFYSINVGGFFKLRAGEEISVQVSNPSLLDPAQDATYFGAFKVQDID
modifications: left off: His6, N-terminal, cleaved | SUMO, N-terminal, cleaved
notes: as for B1
B5: WT: wild type recombinant rat sRANKL (protein)
chain: KPEAQPFAHLTINAADIPSGSHKVSLSSWYHDRGWAKISNMTLSNGKLRVNQDGFYYLYANICFRHHETSGSVPADYLQLMVYVVKTSIKIPSSHNLMKGGSTKNWSGNSEFHFYSINVGGFFKLRAGEEISVQVSNPSLLDPDQDATYFGAFKVQDID
modifications: left off: His6, N-terminal, cleaved | SUMO, N-terminal, cleaved
notes: wild type recombinant rat sRANKL
B6: E227A: single-point mutated rat sRANKL (protein)
chain: KPEAQPFAHLTINAADIPSGSHKVSLSSWYHDRGWAKISNMTLSNGKLRVNQDGFYYLYANICFRHHATSGSVPADYLQLMVYVVKTSIKIPSSHNLMKGGSTKNWSGNSEFHFYSINVGGFFKLRAGEEISVQVSNPSLLDPDQDATYFGAFKVQDID
modifications: left off: His6, N-terminal, cleaved | SUMO, N-terminal, cleaved
notes: as for B1
B7: Y242A: single-point mutated rat sRANKL (protein)
chain: KPEAQPFAHLTINAADIPSGSHKVSLSSWYHDRGWAKISNMTLSNGKLRVNQDGFYYLYANICFRHHETSGSVPADYLQLMVAVVKTSIKIPSSHNLMKGGSTKNWSGNSEFHFYSINVGGFFKLRAGEEISVQVSNPSLLDPDQDATYFGAFKVQDID
modifications: left off: His6, N-terminal, cleaved | SUMO, N-terminal, cleaved
notes: as for B1
B8: R224A: single-point mutated rat sRANKL (protein)
chain: KPEAQPFAHLTINAADIPSGSHKVSLSSWYHDRGWAKISNMTLSNGKLRVNQDGFYYLYANICFAHHETSGSVPADYLQLMVYVVKTSIKIPSSHNLMKGGSTKNWSGNSEFHFYSINVGGFFKLRAGEEISVQVSNPSLLDPDQDATYFGAFKVQDID
modifications: left off: His6, N-terminal, cleaved | SUMO, N-terminal, cleaved
notes: as for B1
B9: H226A: single-point mutated rat sRANKL (protein, UniProt Q9ESE2 69-318, looked up, variant H226A)
extracellular domain: LYFRAQMDPNRISEDSTRCFYRILRLRENTGLQDSTLESEDTEALPDSCRRMKQAFQGAVQRELQHIVGPQRFSGVPAMMEGSWLDVARRGKPEAQPFAHLTINAADIPSGSHKVSLSSWYHDRGWAKISNMTLSNGKLRVNQDGFYYLYANICFRHAETSGSVPADYLQLMVYVVKTSIKIPSSHNLMKGGSTKNWSGNSEFHFYSINVGGFFKLRAGEEISVQVSNPSLLDPDQDATYFGAFKVQDID
modifications: extracellular domain
notes: as for B1
B10: Q238A: single-point mutated rat sRANKL (protein, UniProt Q9ESE2 69-318, looked up, variant Q238A)
extracellular domain: LYFRAQMDPNRISEDSTRCFYRILRLRENTGLQDSTLESEDTEALPDSCRRMKQAFQGAVQRELQHIVGPQRFSGVPAMMEGSWLDVARRGKPEAQPFAHLTINAADIPSGSHKVSLSSWYHDRGWAKISNMTLSNGKLRVNQDGFYYLYANICFRHHETSGSVPADYLALMVYVVKTSIKIPSSHNLMKGGSTKNWSGNSEFHFYSINVGGFFKLRAGEEISVQVSNPSLLDPDQDATYFGAFKVQDID
modifications: extracellular domain
notes: as for B1

System: BMM cells
Assay: Osteoclastogenic assay of WT, single-point mutated sRANKL and L-RANKL
Type: cell-based, mouse
Conditions: for number of osteoclasts (fig. 1f): BMMs, M-CSF 10 ng/mL; for osteoclast formation (fig. S4a): three replicates
Description: Fig. 1 Evidence for selective sRANKL inhibition binding site identification. a Proposed small molecule binding site that can be used to distinguish sRANKL from mRANKL. b he probabilities that distances of residue pairs greater than 1.8 Å in sRANKL (red) and mRANKL (blue). The data are calculated based on conformation trajectories from 100 ns MD simulations on sRANKL and mRANKL. c SDRP frequency in sRANKL and mRANKL. d, e The distance of Y236-D303 and K182-R224 in sRANKL and mRANKL after MD simulation. f, g and h Osteoclastogenesis function of single-point mutated rat sRANKL and WT sRANKL. Representative TRAP staining images from one well each, with triplicate repeats wells of BMM cells isolated from C57BL/6 mice cultured with colony-stimulating factor 1 (M-CSF (10 ng/mL) and either varying WT sRANKL or mutated sRANKL (25–200 ng/mL). The number of osteoclasts counted in the osteoclastogenesis assay with mutated sRANKL. Data were presented as group mean ± s.d., n = 3 biological replicates.
Mouse osteoclasts were cultured according to the previously reported protocols. BMMs were plated in 96-well plates at a density of 6 × 10^3 cells/well with complete medium containing 10 ng/mL M-CSF. The following day, cells were then stimulated with 100 ng/mL sRANKL in the presence or absence of compounds with different concentrations every 2 days until osteoclasts formed. In order to calculate IC50, we set 9 concentrations for each compound and untreated and non-sRANKL unstimulating group as controls, each with triplicated repeated wells. After 5 days, cells were fixed with 4% paraformaldehyde and then applied TRAP-staining to identify osteoclasts by using the TRAP-staining kit. Osteoclasts number (OC No.) in each well was counted and the percentage of inhibition ratio was calculated as follows:1 OCinhibitoryratio%=100−OCNo.treated−OCNo.unstimulating/OCNo.untreated−OCNo.unstimulating×100%
GST-sRANKL was expressed and purified following a previously reported protocol. Rat sRANKL (aa160–318) cDNA was cloned into the bacterial expression vectors pGEX-3X and pGEX-2T with purification GST tag and resultant plasmid named p3rRANKL1. Label-free sRANKL protein in this study was obtained by removing His6-sumo tag from fusion protein His6-sumo-sRANKL. The DNA sequence encoding sRNAKL was inserted downstream the His6-sumo tag of a modified pET20b (+) plasmid. Single point mutations of sRANKL (K182A, R192A, W194A, R224A, H226A, E227A, Q238A, Y242A, H254A, N255A, E270A, K283A, D301A, D303A, or D305A) were constructed by PCR amplification using primer pairs to introduce the designed mutations to pET20b-His6-sumo-sRANKL recombinant plasmid. L-RANKL (binary-RANKL) plasmid was constructed as follow: the consecutive DNA sequence sequentially encoding His6-sumo tag and two sRANKL monomers was cloned into pET20b by PCR amplification using primer pairs to introduce the following restriction enzyme sites to the coding sequences: Nde I-His6-sumo-sRANKL-Bam HI and Bam HI-sRNAKL-Xho I. Each PCR product was double digested with the appropriate restriction enzymes (Thermo) and ligated to the pET20b vector between the Nde I and Xho I sites. Gly-Ser-Gly-Ser was designed to link the two monomers. After confirmed by sequence analysis, the recombinant plasmids were transformed into Escherichia coli BL21 (DE3) cells. The transformed cells were grown in LB media till OD600 about 0.6, then 0.15 mM IPTG was added to induce protein overexpression for 16 h at 20 °C.

Row | Molecule | number of osteoclasts (fig. 1f) (sRANKL protein 25 ng/mL) | number of osteoclasts (fig. 1f) (sRANKL protein 50 ng/mL) | number of osteoclasts (fig. 1f) (sRANKL protein 100 ng/mL) | number of osteoclasts (fig. 1f) (sRANKL protein 200 ng/mL) | osteoclast formation (fig. S4a) (25 ng/mL) | osteoclast formation (fig. S4a) (50 ng/mL) | osteoclast formation (fig. S4a) (100 ng/mL) | osteoclast formation (fig. S4a) (200 ng/mL) | osteoclastogenesis activity, osteoclast number (fig. S3a source data) (L-RANKL vs WT sRANKL, listed as WT-RANKL)
1 | B1 | 0 | 0 | 0 | 0 |  |  |  |  | 
2 | B2 | 0 | 0 | 0 | 0 |  |  |  |  | 
3 | B3 | 0 | 0 | 0 | 0 |  |  |  |  | 
4 | B4 | 0 | 0 | 0 | 0 |  |  |  |  | 
5 | B5 | 53 and 61 and 57 | 118 and 103 and 116 | 198 and 201 and 205 | 198 and 201 and 205 | 53 and 61 and 57 | 118 and 103 and 116 | 201 and 205 | 201 and 205 | 341 and 355 and 358
6 | B6 | 0 | 0 | 0 | 0 |  |  |  |  | 
7 | B7 |  | 1 and 2 | 5 and 7 | 12 and 14 and 11 |  |  |  |  | 
8 | B8 | 0 | 0 | 0 | 0 |  |  |  |  | 
9 | B9 | 0 | 0 | 0 | 0 |  |  |  |  | 
10 | B10 | 218 and 174 and 207 | 153 and 140 and 132 | 166 and 142 and 153 | 155 and 163 and 151 |  |  |  |  | 
